Assay results published in article PMC7822688, “W196 and the β-Hairpin Motif Modulate the Redox Switch of Conformation and the Biomolecular Interaction Network of the Apoptosis-Inducing Factor” (Oxidative Medicine and Cellular Longevity, 2021).
“And” between values parts separate entries of the source, which are not always exact repeats. Equal values may be shown once. “Also recorded” adds a separate entry of the source. Read-outs that look alike come from different tables or passages of the source.

Tests used:
dsDNA = test: ITC binary interaction with dsDNA; type: binding; conditions: for Kd for DNA higher than WT: hAIFΔ1−101ox, binary complexes; for Kd: oxidized hAIF∆1-101 titrated with 15-bp dsDNA, 25°C, pH 7.4
Experimental: (§1) ITC assays were carried out using an Auto-iTC200 (MicroCal, Malvern-Panalytical, Malvern, UK) thermostated at 25 °C. Typically, […] protein partner and dsDNA samples—prepared as described below—were used to titrate ~10 μM hAIF∆1-101 variants. All solutions were degassed at 15°C for 1 min before each assay. A sequence of 2 μL injections of titrant solution every 150 s was programmed, and the stirring speed was set to 750 rpm. The association constant (Ka), the enthalpy of binding (ΔH), and the binding stoichiometry (N) were estimated through nonlinear least-squares regression of the experimental data employing a single-ligand binding site model implemented in Origin 7.0 (OriginLab, Northampton, MA). The dissociation constant (Kd), the free energy change (ΔG), and the entropy change (ΔS) were obtained from basic thermodynamic relationships.
Since hAIF binds DNA unspecifically, a 0.5 mM dsDNA sample was prepared from 1 mM solutions of HPLC-purified forward and a reverse complementary 15-bp oligonucleotides (5′- GGT TAG TTA TGC GCG -3′; randomly designed) synthetized by Integrated DNA Technologies. The pair of oligonucleotides was mixed at an equimolar ratio and annealed by heating 1 min at 99°C and performing a 3 h temperature scanning from 95 to 25°C, decreasing 1°C each 3 min. 0.5 mM dsDNA stock solutions were obtained.

CypA = molecular target: T1, CypA (Homo sapiens, UniProt P62937); test: ITC binary interaction with CypA; type: binding; conditions: oxidized hAIF∆1-101 titrated with CypA, 25°C, pH 7.4
T1 construct: His6 (N); made in house; host or cells: E. coli C41 (DE3)
Experimental: as §1

[1] = Reactivity of the CTC towards molecular oxygen (CTC half-life); type: biochemical; conditions: 25°C, air saturated 50 mM potassium phosphate, pH 7.4
Experimental: The reactivity of the CTC towards molecular oxygen was monitored by full reduction of hAIF∆1-101 samples with NADH (1.5-fold the concentration of the protein) in 50 mM phosphate buffer, pH 7.4, and following their reoxidation in a Cary 100 spectrophotometer (Agilent, Santa Clara, CA). Absorption spectra were recorded at 25 °C until full oxidation of the flavin cofactor was achieved. For each time, the percent remaining of CTC versus reoxidation by molecular oxygen was estimated as ΔAt/ΔAmax, where ΔAmax is the difference between the minimum and the maximum absorbance at 700 nm, and ΔAt is the difference of each value at 700nm minus the minimum absorbance at 700 nm. The CTC half-life is the time at which 50% of CTC still remains.

CHCHD4 = molecular target: T2, CHCHD4 (Homo sapiens, UniProt Q8N4Q1); test: ITC binary interaction with CHCHD4; type: binding; conditions: for Kd / ΔG / ΔH / -TΔS: 25°C, pH 7.4
T2 construct: His6 (N); made in house; host or cells: E. coli C41 (DE3)
T2 sequence (Q8N4Q1 1-142): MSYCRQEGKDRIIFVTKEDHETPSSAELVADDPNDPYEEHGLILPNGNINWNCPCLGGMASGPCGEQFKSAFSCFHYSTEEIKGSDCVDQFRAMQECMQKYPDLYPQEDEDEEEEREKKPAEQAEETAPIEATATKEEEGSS
Experimental: as §1

[2] = Stopped-flow reduction of hAIF∆1-101ox by NADH (hydride transfer); type: biochemical; conditions: for k HT/Kd^NADH / k HT / Kd: pre-steady-state, 25°C, pH 7.4; for k HT: hydride transfer from NADH to FAD, aerobic, 50 mM potassium phosphate; for Kd: transient hAIF∆1-101ox:NADH complex, read-out: K d ^NADH
Experimental: A SX18.MV stopped-flow spectrophotometer (Applied Photophysics Ltd., Surrey, UK), interfaced with the ProData-SX software and a photodiode array detector, was used to investigate the fast kinetic reduction of the hAIF variants by the NADH coenzyme. Samples of ~10 μM hAIF∆1-101ox were mixed with increasing concentrations of NADH (0.03-10 mM) under aerobic conditions in 50 mM potassium phosphate, pH 7.4, at 25 °C. The enzyme and NADH concentrations are the final ones obtained after mixing equal volumes of substrate and enzyme. Observed rate constants for the hydride transfer (HT) event (kobs) were calculated by global analysis and numerical integration methods (simultaneously using all spectral data in the 400-800 nm region along time evolution). A single-step model (A→B) best fitted to describe the overall reaction at all NADH concentrations assayed. Averaged kobs values at each NADH concentration were then fitted to the equation that describes the formation of an enzyme:substrate complex prior to the HT event: (3) kobs=kHTNADH/KdNADH+NADH+krev, where kHT is the limiting rate constant for HT from the pyridine nucleotide coenzyme to the FAD cofactor of hAIF, Kd^NADH is the dissociation constant of the transient hAIF∆1-101ox:NADH complex, and krev is the reaction constant for a potential overall reverse process.

[3] = Stopped-flow CTC formation on mixing photoreduced hAIF∆1-101 with NAD+; type: biochemical; conditions: for k CTC: hAIF∆1-101phrd variants mixed with NAD+; for k CTC / k CTC/Kd^NAD+ / Kd: anaerobic, 25°C, pH 7.4; for k CTC/Kd^NAD+: hAIF∆1-101phrd variants; for Kd: transient hAIF∆1-101phrd:NAD+ complex, read-out: K d ^NAD+
Experimental: Stopped-flow spectrophotometry was also used to evaluate the rate constants of CTC formation when mixing photoreduced hAIF∆1-101 (hAIF∆1-101phrd) with increasing concentrations of NAD^+ (0.125-5 mM) under anaerobic conditions. hAIF∆1-101phrd samples were obtained by photoreduction in the presence of 5 μM methyl viologen, 3 μM 5-deazariboflavin, and 20 mM EDTA. The assays were performed at 25 °C in 50 mM potassium phosphate, pH 7.4, under anaerobic conditions (obtained by several cycles of vacuum application and bubbling with O2 free argon). Data were global fitted to a single step model (A→B), and kobs were determined at the different NAD^+ concentrations assayed. These values were then fitted to the equation that describes the formation of a transient hAIF∆1-101phrd:NAD^+ complex prior to the CTC stabilization: (4) kobs=kCTCNAD^+/KdNAD++NAD^+, in which kCTC is the limiting rate constant for the rearrangement of the encounter complex to form the CTC, and Kd^NAD+ is the dissociation constant for the mentioned transient encounter complex.

[4] = Steady-state DCPIP-dependent diaphorase (NADH oxidase) activity; type: biochemical; conditions: for K m ^NADH / k cat: steady-state, NADH donor, 95 μM DCPIP acceptor, 25°C, 50 mM potassium phosphate, pH 7.4 (table footnote); for k cat: n = 3, mean ± SD
Source text: […] When saturation profiles on the pyridine nucleotide concentration were observed, kinetic constants were estimated by fitting initial reaction rates at different coenzyme concentrations to the Michaelis-Menten equation: (2) ν/e=kcat NADH/KmNADH+NADH,ν/e=kcat/KmNADHNADH/1+kcat/KmNADHNADH/kcat, where v stands for the initial velocity, e is the enzyme concentration, Km^NADH is the Michaelis constant for the enzyme-NADH complex, kcat is the turnover number of the enzyme, and kcat/Km^NADH is the enzyme catalytic efficiency.

[5] = for T m CTC ^FAD − Tm^FAD: CTC state relative to oxidized state of the same variant; for ΔTm^FAD: variant relative to WT; for T m ^FAD: ~2 μM protein, 50 mM potassium phosphate; for ΔTm CTC^FAD: CTC state, variant relative to WT CTC
Experimental: Thermal denaturation curves were followed by changes in the FAD fluorescence emission upon its release from the protein by sample excitation at 450 nm. Curves were monitored from 10 °C to 90 °C with scan rates of 1°C/min, both in the absence and presence of a 100-fold excess of NADH. The curves for each variant were roughly normalized to values between 0 and 1 and globally fitted to a two-step process describing a single transition unfolding equilibrium (native (N)↔unfolded (U)) by using the following equation [23]: (1) Sobs=SN+mNT+SU+mUTe^−ΔG/RT/1+e^−ΔG/RT, in which Sobs is the measured protein signal at a given temperature (T). SN and SU are intercept at 0 K with the y-axis of the linear extrapolation for the native and unfolded pre- and posttransition regions, respectively, while mN and mU are the corresponding slopes. The stabilization Gibbs energy depends on temperature according to ΔG = ΔH(1 − 1/Tm) + ΔCP(T − Tm − Tln(T/Tm)), where ΔH is the unfolding enthalpy, Tm is the midtransition temperature, ΔCP is the unfolding heat capacity change, and R is the ideal gas constant.

[6] = CTC form (premixed with NADH 1:100) titrated with CHCHD4, ITC, read-out: K d
[7] = CTC form titrated with CHCHD4, ITC
[8] = oxidized hAIF∆1-101 titrated with CHCHD4, ITC
[9] = steady-state DCPIP diaphorase reaction
[10] = CTC hAIF∆1-101rd:NAD^+, 100-fold excess NADH
[11] = CTC hAIF∆1-101rd:NAD^+, 100-fold excess NADH, pH 7.4, ionic strength 150 mM
[12] = hAIF∆1-101ox, pH 7.4, ionic strength 150 mM

T1 sequence (P62937 whole entry): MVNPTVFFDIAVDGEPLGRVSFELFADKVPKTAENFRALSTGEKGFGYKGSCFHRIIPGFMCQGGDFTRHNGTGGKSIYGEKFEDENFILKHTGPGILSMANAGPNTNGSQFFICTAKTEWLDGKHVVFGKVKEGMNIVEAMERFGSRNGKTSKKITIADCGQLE

| Substance | Kd (dsDNA) [µM] | -TΔS (CypA) [kcal/mol] | ΔG (CypA) [kcal/mol] | ΔH (CypA) [kcal/mol] | CTC half-life versus reoxidation by O2 [1] [min] | Kd (CHCHD4; [6]) [µM] | ΔG (CHCHD4; [7]) [kcal/mol] | k HT/Kd^NADH [2] [M⁻¹ s⁻¹] | k HT [2] [s⁻¹] | Kd [2] [µM] | k CTC [3] [s⁻¹] | k CTC/Kd^NAD+ [3] [M⁻¹ s⁻¹] | Kd [3] [µM] | K m ^NADH [4] [µM] | k cat [4] [s⁻¹] | ΔH (unfolding enthalpy) [5, 10] [kcal/mol] | T m CTC ^FAD [5, 11] [K] | T m CTC ^FAD − Tm^FAD [5] [K] | ΔH (unfolding enthalpy) [5, 12] [kcal/mol] | T m ^FAD [5, 12] [K] | further results |
| --- | --- | --- | --- | --- | --- | --- | --- | --- | --- | --- | --- | --- | --- | --- | --- | --- | --- | --- | --- | --- | --- |
| W196A: W196A site-directed mutant of hAIF∆1-101; ox = oxidized, CTC = charge transfer complex with NAD+ | 5.8 | -34.9 | -7.6 | 27.3 | 62 | 0.5 | -8.3 | 117000 ± 5300 | 126 ± 1 | 1070 ± 40 | 30 ± 1 | 76000 ± 10000 | 394 ± 50 | 25 ± 4 | 4.3 ± 0.2 | 170 ± 4 | 326 ± 1 | 0 | 103 ± 3 | 326 ± 1 | Kd for DNA higher than WT (dsDNA): ~ 4 fold; ΔH (CHCHD4; [7]): -5.9 kcal/mol; Kd (CHCHD4; oxidized hAIF∆1-101 titrated with CHCHD4, ITC, 50 mM potassium phosphate, listed as W196Aox, read-out: K d): ~0.4 µM and 0.4 µM; -TΔS (CHCHD4; [8]): -18.0 kcal/mol; ΔG (CHCHD4; [8]): -8.4 kcal/mol; ΔH (CHCHD4; [8]): 9.6 kcal/mol; higher affinity for the NADH substrate relative to WT ([2]; stopped-flow, NADH): ~ 5 fold; decrease in Kd^NAD+ relative to WT ([3]; hAIF∆1-101phrd with NAD+): ~ 5 fold; increase in turnover rate relative to WT [4, 9]: ~ 5 fold; ΔTm^FAD ([5]; hAIF∆1-101ox): −11 ± 2 K |
| W196L: W196L site-directed mutant of hAIF∆1-101 |  |  |  |  | 32 |  |  | 21000 ± 3000 | 36 ± 1 | 1720 ± 210 | 29 ± 2 | 67000 ± 18000 | 433 ± 11 | 187 ± 18 | 2.8 ± 0.1 | 159 ± 4 | 324 ± 1 | −2 ± 2 | 118 ± 3 | 326 ± 1 | decrease in Kd^NAD+ relative to WT ([3]; hAIF∆1-101phrd with NAD+): ~ 5 fold; decrease in Km^NADH relative to WT [4, 9]: ~ 3 fold; efficiency oxidizing NADH relative to WT [4, 9]: ~ 8 times; increase in turnover rate relative to WT [4, 9]: ~ 3 fold; ΔTm CTC^FAD [5]: 0 K; ΔTm^FAD ([5]; hAIF∆1-101ox): −11 ± 2 K |
| W196Y: W196Y site-directed mutant of hAIF∆1-101; ox = oxidized, CTC = charge transfer complex with NAD+ | 6.9 | -24.9 | -7.9 | 17.0 | 42 | 2.1 | -7.5 | 4000 ± 800 | 12 ± 1 | 2870 ± 320 | 16 ± 1 | 87000 ± 14000 | 183 ± 27 | 505 ± 35 | 2.7 ± 0.1 | 167 ± 4 | 323 ± 1 | −6 ± 2 | 123 ± 3 | 329 ± 1 | Kd for DNA higher than WT (dsDNA): ~ 4 fold; -TΔS (CHCHD4; [7]): 0.7 kcal/mol; ΔH (CHCHD4; [7]): -8.2 kcal/mol; Kd for CHCHD4 higher relative to WT CTC (CHCHD4; CTC form, ITC): ~ 10 fold; Kd (CHCHD4; oxidized hAIF∆1-101 titrated with CHCHD4, ITC, 50 mM potassium phosphate, listed as W196Yox): heat exchange was not observed; also recorded: No detected binding; efficiency as hydride acceptor from NADH relative to WT ([2]; stopped-flow, NADH): ~ 12 fold; decrease in Kd^NAD+ relative to WT ([3]; hAIF∆1-101phrd with NAD+): ~ 11 fold; decrease in kCTC relative to WT ([3]; hAIF∆1-101phrd with NAD+): less than 3 fold; efficiency oxidizing NADH relative to WT [4, 9]: ~ 3 times; increase in turnover rate relative to WT [4, 9]: ~ 3 fold; ΔTm CTC^FAD [5]: −1 ± 2 K; ΔTm^FAD ([5]; hAIF∆1-101ox): −8 ± 2 K |
| WT: wild-type human apoptosis-inducing factor, soluble form hAIF∆1-101 (UniProtKB O95831); ox = oxidized, CTC = NADH-reduced charge transfer complex | 1.6 | 17.2 | -7.3 | -24.5 | 72 | 0.2 | -8.7 | 400 ± 100 | 1.5 ± 0.1 | 4090 ± 300 | 45 ± 2 | 22000 ± 3000 | 2080 ± 250 | 495 ± 170 | 0.9 ± 0.1 | 150 ± 4 | 324 ± 1 | −13 ± 2 | 128 ± 3 | 337 ± 1 | -TΔS (CHCHD4; [7]): 11.4 kcal/mol; ΔH (CHCHD4; [7]): -20.1 kcal/mol; Kd (CHCHD4; oxidized hAIF∆1-101 titrated with CHCHD4, ITC, 50 mM potassium phosphate, listed as WTox): heat exchange was not observed; also recorded: No detected binding |
